Measured values from the supplement of paper PMC6757056.
± gives the standard deviation of the averaged measurements.

B1: library; a variant is named by its letters at N, in order (parent)
chain: GCUGUCACCGGAAUACCAGCAUCGUCUUGAUGCCCUUGGAAGUCCGGUCUGAUGAGUCCNNNNNGGACGAAACAGC

Experiments:
theophylline [1] = variants of: B1; assay: FACS-Seq fitted mean relative fluorescence mCherry/BFP without ligand (log10 relative fluorescence); higher = higher reporter protein expression; settings: HEK293T, ligand present: no
Outline: (§1)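 HEK293T libraries were made by lentiviral transduction with a ribozyme-switch mCherry reporter and an EF1α-BFP marker, enriched, and incubated with or without ligand for 48 h. Cells were sorted into 6 mCherry/BFP bins, and each bin's genomic DNA was PCR-amplified, barcoded and run on MiSeq. Fluorescence was derived by normal fitting of the bin counts. The fitted log10(mCherry/BFP) mean was scaled to five spiked-in control ribozymes.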

theophylline [2] = variants of: B1; assay: normalized RNA/DNA level with ligand (relative to sTRSVctl = 100) (log10 (% of sTRSVctl)); higher = less ribozyme self-cleavage, higher mRNA level; settings: ligand concentration (+) RNA-Seq: 5 mM, HEK293T, reporter: mCherry (pCS4076), ligand present: yes
Outline: (§2)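 Total RNA, extracted with EDTA 72 h after HEK293T cells were transfected with 4 µg per 6-well well of reporter-linked ribozyme switch library plasmids, was reverse-transcribed, amplified, barcoded and sequenced. Ligand, if used, was added 1 h before transfection. RNA level was derived from RNA reads divided by DNA reads and normalized to a spiked-in non-cleaving sequence or to the top sequences. This was multiplied by 100 and log10-transformed, with the top set of 25 sequences and a ≥100 DNA read minimum.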

theophylline [3] = variants of: B1; assay: normalized RNA/DNA level without ligand (relative to sTRSVctl = 100) (log10 (% of sTRSVctl)); higher = less ribozyme self-cleavage, higher mRNA level; settings: HEK293T, reporter: mCherry (pCS4076), ligand present: no
Outline: as §2

theophylline [4] = variants of: B1; assay: FACS-Seq fitted mean relative fluorescence mCherry/BFP with ligand (log10 relative fluorescence); ligand concentration (+) FACS-Seq: 1 mM; higher = higher reporter protein expression; settings: HEK293T, ligand present: yes
Outline: as §1

Variant | FACS-Seq fitted mean (log10) (theophylline [1]) | normalized RNA/DNA level with ligand (log10) (theophylline [2]) | normalized RNA/DNA level without ligand (log10) (theophylline [3]) | FACS-Seq fitted mean (log10) (theophylline [4])
UUAAC | 0.885 ± 0.033 | 1.946 ± 0.0047 | 1.93 ± 0.042 | 0.858 ± 0.072
UUAAA | 0.111 ± 0.099 | 1.895 ± 0.0096 | 1.26 ± 0.013 | 0.545 ± 0.078
AUAGG | 0.526 ± 0.084 | 1.994 ± 0.0048 | 1.84 ± 0.068 | 0.441 ± 0.063
AUAGC | 0.922 ± 0.023 | 1.94 ± 0.082 | 1.87 ± 0.12 | 0.9641 ± 0.0048
AUAGU | 0.0428 ± 0.058 | 2.04 ± 0.045 | 1.76 ± 0.038 | 0.179 ± 0.18
AUAGA | 0.592 ± 0.06 | 1.958 ± 0.018 | 1.57 ± 0.15 | 0.972 ± 0.13
AUCAA | 1.02 ± 0.047 | 1.95 ± 0.084 | 1.68 ± 0.12 | 1.15 ± 0.083
AUCAC | 0.845 ± 0.16 | 1.98 ± 0.022 | 1.96 ± 0.068 | 0.786 ± 0.039
AUCCA | 0.993 ± 0.031 | 2 ± 0.13 | 1.95 ± 0.1 | 0.788 ± 0.066
AUCCG | 0.573 ± 0.011 | 1.92 ± 0.097 | 1.96 ± 0.014 | 0.591 ± 0.063
CGUCC | 0.784 ± 0.02 | 2.01 ± 0.086 | 2 ± 0.044 | 0.87 ± 0.021
CUACU | 0.761 ± 0.11 | 1.96 ± 0.087 | 1.8 ± 0.019 | 0.924 ± 0.034
CUACA | 0.702 ± 0.027 | 2.031 ± 0.0063 | 1.84 ± 0.021 | 0.826 ± 0.11
CUACC | 0.996 ± 0.11 | 1.968 ± 0.015 | 1.96 ± 0.11 | 1.02 ± 0.03
CGUUU | 0.252 ± 0.084 | 2.06 ± 0.11 | 1.53 ± 0.077 | 0.945 ± 0.041
CGUUC | 0.959 ± 0.048 | 1.8643 ± 0.00065 | 1.75 ± 0.07 | 0.949 ± 0.067
UUCCC | 1.02 ± 0.027 | 1.97 ± 0.04 | 1.99 ± 0.031 | 0.9913 ± 0.0095
AGUGC | 0.289 ± 0.03 | 2.01 ± 0.0061 | 1.87 ± 0.071 | 0.297 ± 0.058
